Data published in PMC12749841 (Nature Communications, 2025).

Target: importin β (human, UniProt Q14974 1-876)
Assay: cryo-EM structure

Chain of importin β (Q14974 whole entry): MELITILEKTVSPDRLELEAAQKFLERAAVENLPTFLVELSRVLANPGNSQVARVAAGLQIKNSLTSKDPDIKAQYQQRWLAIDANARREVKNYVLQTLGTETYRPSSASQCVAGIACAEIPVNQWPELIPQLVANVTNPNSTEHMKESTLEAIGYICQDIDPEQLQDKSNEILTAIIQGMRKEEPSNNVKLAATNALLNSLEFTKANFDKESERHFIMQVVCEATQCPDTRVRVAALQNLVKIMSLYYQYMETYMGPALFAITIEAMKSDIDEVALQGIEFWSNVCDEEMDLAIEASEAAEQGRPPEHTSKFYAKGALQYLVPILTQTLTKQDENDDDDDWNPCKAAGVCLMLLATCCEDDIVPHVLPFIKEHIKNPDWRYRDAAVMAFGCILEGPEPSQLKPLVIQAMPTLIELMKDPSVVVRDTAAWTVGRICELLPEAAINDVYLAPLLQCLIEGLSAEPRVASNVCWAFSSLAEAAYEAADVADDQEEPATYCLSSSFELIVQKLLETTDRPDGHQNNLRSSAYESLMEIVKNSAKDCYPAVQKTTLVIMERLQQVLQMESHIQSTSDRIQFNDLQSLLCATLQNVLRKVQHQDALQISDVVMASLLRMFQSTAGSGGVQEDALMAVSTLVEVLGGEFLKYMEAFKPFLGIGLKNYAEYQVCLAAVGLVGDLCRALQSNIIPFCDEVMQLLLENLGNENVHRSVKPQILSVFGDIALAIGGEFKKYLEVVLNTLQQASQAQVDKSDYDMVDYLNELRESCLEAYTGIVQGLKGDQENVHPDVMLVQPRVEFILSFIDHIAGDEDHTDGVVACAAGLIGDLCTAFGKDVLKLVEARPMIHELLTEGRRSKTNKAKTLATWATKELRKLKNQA

B1: importin α1 IBB domain (res 1–65) fused to 6xHis Maltose Binding Protein (domain or fragment)
chain: not shown
  binding result: binds
